Source: US6407222B1, “Cloning and expression of dog gonadotropin releasing hormone receptor” (Merck & Co., Inc., priority 1999, dated 2002)

Assays:
[1] = biological target: T1, dog GnRH receptor (Canis lupus familiaris, UniProt Q9MZI6); assay: Phosphoinositide (PI) turnover assay in 1B2-1F9 cells (CHO-K1 stably expressing the dog GnRH receptor); format: cell-based; conditions: 1B2-1F9 CHO-K1 clone expressing dog GnRH receptor; 37° C., 1 hour; FIG. 5; read-out: EC50 of GnRH-stimulated PI turnover
T1 construct: The full-length coding cDNA of the dog GnRH receptor was cloned from dog pituitary mRNA by RT-PCR; expressed in transfected cells
T1 sequence (Q9MZI6 1-327): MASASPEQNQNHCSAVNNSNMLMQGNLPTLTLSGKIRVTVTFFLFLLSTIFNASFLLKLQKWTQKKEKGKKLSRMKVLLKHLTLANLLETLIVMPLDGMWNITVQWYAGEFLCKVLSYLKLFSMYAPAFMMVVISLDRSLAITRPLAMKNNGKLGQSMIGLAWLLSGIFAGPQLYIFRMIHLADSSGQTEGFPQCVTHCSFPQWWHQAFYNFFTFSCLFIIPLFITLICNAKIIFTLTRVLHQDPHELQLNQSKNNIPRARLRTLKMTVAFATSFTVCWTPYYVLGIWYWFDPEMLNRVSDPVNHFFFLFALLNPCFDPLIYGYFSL
Method: The coding cDNA of the dog GnRH receptor was subcloned into a polycistronic expression vector pIRES1.neo (Clontech Laboratories, Palo Alto, Calif.) to generate cells stably expressing the receptor. The plasmid DNA of pIRES1.neo-dog-GnRHR was transfected into CHO-K1 cells by lipofectin (GIBCO-BRL, Grand Island, N.Y.) following the manufacturer's instruction. Transfection was carried out overnight and the cells were split 48 hours later. G418 at 1 mg/ml was added 24 hours after splitting, and its concentration was increased to 2 mg/ml in 2-3 days. After 10 days selection by G418, colonies were picked and transferred to 24-well plates. The clones that expressed the dog GnRH receptor were screened by a whole cell binding assay using a radiolabeled peptide agonist of GnRH, 5-(^125Iodo-Tyr)-Buserelin (Woods Assay, Portland, Oreg.). […] After single cell isolation, the membrane from this clone was prepared, and the membrane binding assay was performed using ^125I-buserelin. […] The GnRH-stimulated PI turnover was also performed.
1B2-1F9 cells are functionally coupled to phospholipase C. […] The eluate was then counted in a scintillation counter.

[2] = biological target: dog gonadotropin-releasing hormone (GnRH) receptor (dog) (UniProt Q9MZI6); assay: whole cell radioligand binding assay on transfected CHO-K1 clones (seven of 71 clones)
[3] = biological target: dog gonadotropin-releasing hormone (GnRH) receptor (dog) (UniProt Q9MZI6); assay: whole cell radioligand binding assay on CHO-K1 clone 1B2-1F9
[4] = biological target: dog gonadotropin-releasing hormone (GnRH) receptor (dog) (UniProt Q9MZI6); assay: cell-based or functional assay

With `CC(C)C[C@H](NC(=O)CNC(=O)[C@H](Cc1ccc(O)cc1)NC(=O)[C@H](CO)NC(=O)[C@H](Cc1c[nH]c2ccccc12)NC(=O)[C@H](Cc1cnc[nH]1)NC(=O)[C@@H]1CCC(=O)N1)C(=O)N[C@@H](CCCNC(=N)N)C(=O)N1CCC[C@H]1C(=O)NCC(N)=O` [GnRH, Gonadotropin-releasing hormone] the EC50 [1] was 300 to 400 pM.
5-(125Iodo-Tyr)-Buserelin (peptide) showed a specific binding activity, fold above the non-specific binding [2] of 5 fold and a specific binding activity, fold above the background [3] greater than 10 fold.
In the case of “Gonadotropin-releasing hormone (GnRH) (from UniProt P01148 24-92) (ligand)”, the EC50 of GnRH-stimulated PI turnover [4] is reported as 300 to 400 pM.
